This note sets out measurements from article PMC10377036, “Biological Recognition-Based Electrochemical Aptasensor for Point-of-Care Detection of cTnI”.

The data set addresses cardiac troponin I (cTnI) (UniProt P19429 2-210). The experiment in a line: electrochemical aptasensor (CV, SWV); 50 ng/mL cTnI in CV feasibility test; electrode blocked with MCH; sensor LOD 8.46 pg/mL, linear range 10 pg/mL-100 ng/mL (not a Kd); SWV in PBS (0.01 M PB, 150 mM NaCl, pH 7.4); 10 uL cTnI incubated on electrode 10 min at room temperature. The note with it: protein: commercial; label: methylene blue; single strand.

Sequence of cardiac troponin I (cTnI) (P19429 2-210): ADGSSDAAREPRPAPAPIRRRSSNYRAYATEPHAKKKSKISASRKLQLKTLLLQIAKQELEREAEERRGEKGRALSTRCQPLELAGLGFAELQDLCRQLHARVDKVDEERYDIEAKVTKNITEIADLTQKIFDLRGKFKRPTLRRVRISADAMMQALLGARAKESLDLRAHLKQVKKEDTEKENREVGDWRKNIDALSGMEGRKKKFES

For CGTGCAGTACGCCAACCTTTCTCATGCGCTGCCCCTCTTA (ssDNA, 5' thiol (SH); 3' methylene blue (MB)) [Apt (MB-Apt-SH)], the binding result is “binds”.
